Data from article PMC7857584.

Key:
[1] = target: MLA22LRR10-cLUC (barley)
[2] = target: MLA10-cLUC (barley) (UniProt Q6WWJ4)

## AVRA10-nLUC (natural protein)
[1]
  reduction of relative LUC activity (proxy for cell death) in barley protoplasts co-expressing AVRa10 and Mla22Lrr10, against the empty vector (% reduction of relative LUC activity): 40
[2]
  LUC activity (proxy for cell viability) in barley protoplasts co-expressing Mla10 and AVRa10, against Mla10 with AVRa22 (% lower LUC activity): 50
